From the supplement of paper PMC9170038

Tests used:
[1] = test system: MS2 coat protein; assay: apparent KD of MS2 coat protein, switch ON state; designed switch direction (-1 OFF switch, 1 ON switch): -1; higher = weaker reporter binding; details: FMN input: 0 or 200 uM; Eterna round: R93 (includes R88 designs)
How it was run: (§1)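 Illumina sequencing clusters served as templates for on-chip transcription of the designed RNA switches. SNAP-549-labelled MS2 coat protein was then titrated in twofold steps from 0.7 or 1.5 nM to 3 µM, allowing 0.8–1.5 h per step at first and 10–20 min per step later. The buffer held 100 mM Tris-HCl pH 7.5, 80 mM KCl and 4 mM MgCl2, without or with constant ligand. Apparent KD is the median per design of normalised cluster binding-curve fits.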

[2] = test system: MS2 coat protein; assay: apparent KD of MS2 coat protein, switch OFF state (with FMN for OFF switches, without FMN for ON switches); designed switch direction (-1 OFF switch, 1 ON switch): -1; higher = weaker reporter binding; details: FMN input: 0 or 200 uM; Eterna round: R93 (includes R88 designs)
How it was run: as §1

Sequence	apparent KD of MS2 coat protein [1] [µM]	apparent KD of MS2 coat protein [2] [µM]
AACUGACAUGAGGAUCACCCAUGUCAGGAUAUGAUUUGACGAAAUAAAUAAAGUCAUAUCAGAAGGGACAUGGA [Design 80: Sub-opt U]	0.025	0.0504
AACUGACAUGAGGAUCACCCAUGUCAGGAUAUGCUUCUAGGAAAAAUAAAAACUAGAUGCAGAAGGGAUAUGGG [Design 38]	0.0222	0.0333
AACUGGGCAGGAUAUACAUGAGGAUCACCCAUGUAAAGAAAAGAAAGAUCCGAGGAAAGUAGAAGGGCCUGGAA [Variant 4 of Mod 1 of Ex3 sub 3, by Tesla's Dusciple Round 1]	0.0556	0.0913
AAGAAACAUGAGGAUCACCCAUGUGAGGAUAUCUAAAAGAAAAGAAAAGAAAGAAGAAGGAGAAGGCACAAAGG [H—]	0.0343	0.029
AAGAAACAUGAGGAUCACCCAUGUGAGGAUAUUGAAGAAAGAAAGAAAGAAAGAAGAACAAGAAGGCACAAAGG [Quintus Magnus Maximus]	0.0269	0.035
AAGAACCAAGGAUAUACAUGAGGAUCACCCAUGUAAAAGAAAGAGGGAAAAGAGAAAAGUAGAAGGUGGAAGAA [Ptolemy VI Philometor]	0.0275	0.0321
AAGAACGAAGGAUAUACAUGAGGAUCACCCAUGUAAAAGAAAGAAAAGGGAAAGAAAAGUAGAAGGUCGAAGAA [Banenre Merenptah]	0.0215	0.0331
AAGAACGUAGGAUAUACAUGAGGAUCACCCAUGUAAAAGAAAGAGGGAAAAGAGAAAAGUAGAAGGACGAAGAA [Cleopatra II]	0.0261	0.0382
AAGAACUAAGGAUAUACAAAAUAAAAGAAAAGAAAGAAAGAACAUGAGGAUCACCCAUGUAGAAGGUAGAAGAA [Khakheperre Senusret II]	0.0199	0.0151
AAGAACUGAGGAUAUACAUGAGGAUCACCCAUGUAAAAGAAAGAGGGAAAAGAGAAAAGUAGAAGGCAGAAGAA [Berenice II]	0.0249	0.0324
AAGAACUGAGGAUAUACUAAAGAAAUGAAAAGAAAGAAAGAACAUGAGGAUCACCCAUGUAGAAGGCAGAAGAA [Ya'ammu Nubwoserre]	0.0299	0.018
AAGAACUUAGGAUAUACAAGGAAGAAAGAAAAGAAAAGAAAACAUGAGGAUCACCCAUGUAGAAGGAAGUAGAA [EteRNA is fun!]	0.0409	0.0215
AAGAAGACAGGAUAUACAAAAUAAAAGAAAAGAAAGAAAGAACAUGAGGAUCACCCAUGUAGAAGGGUCAAGAA [Sekhemkare Amenemhat V]	0.0699	0.0311
AAGAAGAGAGGAUAUACAUGAGGAUCACCCAUGUAAAAGAAAGAAAGGGAAAAGAAAAGUAGAAGGCUCAAGAA [Neferkare-setpenre Ramesses IX]	0.0346	0.0457
AAGAAGCAAGGAUAUACAUGAGGAUCACCCAUGUAAAAGAAAGAGAAGGGAAAGAAAAGUAGAAGGUGCGAAAA [Ruby 71]	0.0202	0.0237
AAGAAGCAAGGAUAUACUAAAGAAAUGAAAAGAAAUAAAGAACAUGAGGAUCACCCAUGUAGAAGGUGCAAGAA [Webenre]	0.0504	0.0393
AAGAAGCUAGGAUAUACUAAAGAAAUGAAAAGAAAUAAAGAACAUGAGGAUCACCCAUGUAGAAGGAGCAAGAA [Djefare]	0.0423	0.0189
AAGAAGGCAGGAUAUACAAAAUAAAAGAAAAGAAAGAAAGAACAUGAGGAUCACCCAUGUAGAAGGGUCAAGAA [Sankhenre Sewadjtu]	0.0479	0.0372
AAGAAGGCAGGAUAUACUAAAGAAAUGAAAAGAAAUAAAGAACAUGAGGAUCACCCAUGUAGAAGGGCCAAGAA [Khakherewre]	0.0352	0.0241
AAGAAGGUAGGAUAUACUAGGGCAACUAAUGCAAAGAUAGGACAUGAGGAUCACCCAUGUAGAAGGGCCAGAAA [JR_Exc002_Sub403]	0.048	0.0596
AAGAAGUCAGGAUAUGCUGCUCGUCACGAAAGUGAUGAGUAGCAGAAGGGACAUGAGGAUCACCCAUGUAAAGA [Exclusion 4.1 (Exclusion4-cac2 - the real original)]	0.0552	0.0666
AAGAAGUGAGGAUAUACAAAAUAAAAGAAAAGAAAGAAAGAACAUGAGGAUCACCCAUGUAGAAGGCACAAGAA [Sekhemkare Amenemhat V]	0.022	0.0178
AAGAAGUGAGGAUAUACAUGAGGAUCACCCAUGUUAAGAAGAAUUUUAGAGAAAGAAGGUAGAAGGCACAAGAA [JR_Exclusion3_Sub5]	0.0347	0.0353
AAGAAGUGAGGAUAUCGAAGACUGUCGAAAAGACAGUCGAACGAGAAGGCACAUGAGGAUCACCCAUGUGGGAG [Mat - Exaclusion 4 - Eli mod - D71]	0.0805	0.176
AAGAAGUGAGGAUAUCGUGCUCGUCACAAAAGUGAUGAGUACGAGAAGGCACAUGAGGAUCACCCAUGUAAAGA [Opal 36]	0.0401	0.0526
AAGAAUCGAGGAUAUACAAGAAAGAAAGAAAAGAAAAGAAAACAUGAGGAUCACCCAUGUAGAAGGCGAUAGAA [EteRNA is fun!]	0.022	0.0246
AAGAAUGGAGGAUAUACAUGAGGAUCACCCAUGUAAAAGAAAGAAGGGAAAGAGAAAAGUAGAAGGCCAAAGAA [Khuinefertemre Taharqa]	0.0265	0.0538
AAGAUCAGAGGAUAUACAUAAGGUGAUGAAAACAUCGCCAAACAUGAGGAUCACCCAUGUAGAAGGCUGAUCAA [JL EX2 1]	0.118	0.231
AAGGGACAUGAGGAUCACCCAUGUGAGGAUAUGAUGCGAAUAAAGAAAUAAUAAAGCAUCAGAAGGCACACCAA [Mat - Exclusion 1 - Eli mod - D67]	0.0824	0.0885
AAGGGACAUGAGGAUCACCCAUGUUAGGAUAUGCAAAUAACAAACAACAAACAACAAAGCAGAAGGGACAAAAA [Mat - Exclusion 1 - Eli mod - D54]	0.0375	0.0293
